Results from article PMC9361823, “The α- and β-Subunit Boundary at the Stem of the Mushroom-Like α3β3-Type Oxygenase Component of Rieske Non-Heme Iron Oxygenases Is the Rieske-Type Ferredoxin-Binding Site” (Applied and Environmental Microbiology, 2022).

Target: the molecule itself
Assay: SEC; α (His6) and untagged β co-expressed in E. coli and co-purified by metal chelation and gel filtration (Superdex200; 20 mM Tris-HCl, 0.2 M NaCl, 10% glycerol, pH 7.4); 150- to 200-kDa complex in solution (Fig. S1; the text does not say how the size was estimated)

B1: α-subunit of CumDO-O (CumA1) (natural protein)
chain: not shown
notes: CumA1, α-subunit of CumDO-O (cumene dioxygenase oxygenase component); also called 51-kDa α-subunit; not shown: His6, C-terminal, kept
binding result: binds

B2: β-subunit of CumDO-O (CumA2) (natural protein, Pseudomonas fluorescens IP01, UniProt Q51744 1-186, looked up)
chain: MTSADLTKPIEWPEMPVSLELQNAVEQFYYREAQLLDYQNYEAWLALLTQDIQYWMPIRTTHTSRNKAMEYVPPGGNAHFDETYESMRARIRARVSGLNWTEDPPSRSRHIVSNVIVRETESAGTLEVSSAFLCYRNRLERMTDIYVGERRDILLRVSDGLGFKIAKRTILLDQSTITANNLSQFF
notes: CumA2, β-subunit of CumDO-O (cumene dioxygenase oxygenase component), not tagged; also called 21-kDa β-subunit
binding result: binds
